The text below walks through data of patent publication US12697366B2, “Thermogenic compositions and methods” (Ohio State Innovation Foundation, priority 2016, dated 2026).

The test system of assay [1] is 3T3-L1 preadipocytes. In words: FD-glucose uptake in 3T3-L1 preadipocytes. Type of assay: cell-based, mouse. To be noted: mouse recombinant IGFBP4; human insulin 10 μg/mL; 90 min. How it is done:
Non-differentiated, 90% confluent 3T3-L1 cells were starved with glucose-deprived medium for 40 min. Then cells were treated in the presence and absence of different concentrations of nanoscaffold #2 and bovine insulin (200 μg/mL), all of reagents dissolved in the same glucose-deprived medium but containing fluorescent-D (FD)-glucose for 80 min. Thereafter, the FD glucose uptake was measured according to manufacturer's instructions (Cayman Chemical, USA, cat #600471). […] Non-differentiated, 90% confluent 3T3-L1 cells treated in the presence and absence of different concentrations of nanoscaffold #2 and bovine insulin (10 μg/mL) or mouse epiregulin (EREG, 0.05 μg/mL) and incubated for 24 h. Then cells were starved with glucose-deprived medium for 40 min and, then incubated with fluorescent-D (FD)-glucose for 80 min. Thereafter, the FD glucose uptake was measured according to manufacturer's instructions (Cayman Chemical, USA, cat #600471). Data are shown as percent of uptake in the presence of insulin (100%).
Non-differentiated, 90% confluent 3T3-L1 cells treated in the presence of bovine insulin (10 μg/mL), mouse epiregulin (EREG, 0.05 μg/mL), or their combinations and incubated for 24 h. Then cells were starved with glucose-deprived medium for 40 min and, then incubated with fluorescent-D (FD)-glucose for 80 min. Thereafter, the FD glucose uptake was measured according to manufacturer's instructions (Cayman Chemical, USA, cat #600471).
Non-differentiated, 90% confluent 3T3-L1 cells were starved with glucose-deprived medium for 50 min. Then cells were treated in the presence and absence of different concentrations of mouse recombinant IGFBP4 with and without nanoscaffold #2 and human insulin (10 μg/mL). All of reagents were dissolved in the same glucose-deprived medium but containing fluorescent-D (FD)-glucose for 90 min. Thereafter, the FD glucose uptake was measured according to manufacturer's instructions (Cayman Chemical, USA, cat #600471).
Glucose uptake assay was performed using glucose uptake cell-based assay kit (Cayman Chemical, Ann Arbor, MI). 3T3-L1 or human preadipocytes were cultured at a density of 5×10^4 per well into a 96-well plate (n=7) in high glucose media and grown overnight. Old cell culture medium was removed the next day and washed with PBS to remove residual glucose. Supplied 2-deoxy-2-[(7-nitro-2,1,3-benzoxadiazol-4-yl)amino]-D-glucose) (2-NBDG) was diluted to 150 μg/mL in DMEM medium without glucose, phenol red, L-glutamine, sodium pyruvate, and HEPES (Life technologies, Grand Island, New York). 100 μL of 2-NBDG glucose free medium with or without recombinant EREG and other treatments was added to the plated cells. After incubating at 37° C. for 30 minutes, cells were washed gently two times with 200 μL of glucose assay buffer. 100 μL of the assay buffer was added to each well and measured for fluorescence at an excitation/emission of 485/535 nm.
Fluorescence glucose uptake (FD-glucose assay) was performed as described PMID: 32065973, using insulin, 1.7 μM and different AACs at concentration 0.1 μM.
FD-glucose uptake in mouse 3T3-L1 preadipocytes (n=8 per treatment) treated with vehicle (Veh; PBS, open bar) or hINS (1.7 μM), mouse leptin (mLep; 12.5 nM, hatched bar), or AAC2 (0.1 μM black bar) in the presence and absence of GLUT1 inhibitor (BAY-876; 10 nM in DMSO). Cells were pre-treated with or without BAY-876 for 40 min and then FD glucose and treatment reagents were added for additional 80 min of incubation. Data (%) was normalized to FD-glucose uptake in control (Veh) 3T3-L1 cells without inhibitor (100%). Student's independent t-test.

Assay [2] has as its system ob/ob mice. In words: AAC2, IGFBP4 and AAC2-IGFBP4 treatment of ob/ob mice. Type of assay: in vivo, mouse. The following applies: ELISA, end of study. How it is done:
A study was performed in ob/ob mouse model of obesity, insulin resistance, and type 2 diabetes. Treatment groups (n=5) included vehicle (non-treated control), AAC2 nanofiber alone, IGFBP4 peptide alone, and AAC2-IGFBP4 peptide bound to nanofiber. 5-week old male Lep^ob mice (ob/ob mice, Jackson #000632-B6.Cg-Lepob/J, Homozygous for Lepob) were randomized into four groups (n=5/group). After 1 week assimilation period, mice were injected (10 μl/g body weight (BW)) into scapular region every 48 h for 4 weeks with: • Group 1: PBS vehicle control, • Group 2: 1 nmol AAC2/g BW, • Group 3: 0.0187 nmol human insulin-like growth factor binding protein 4 (hIGFBP4, Peprotech #350-05B), or • Group 4: AAC2/hIGFBP4 combination (1 nmol AAC2 and 0.0187 nmol hIGFBP4/g BW were assembled into complex prior to injection)
On the technique in general: In an ELISA, binding on a coated surface is turned into a signal by an enzyme label.

B1: IGFBP4: recombinant insulin-like growth factor binding protein 4 (protein)
chain: DEAIHCPPCSEEKLARCRPPVGCEELVREPGCGCCATCALGLGMPCGVYTPRCGSGLRCYPPRGVEKPLHTLMHGQGVCMELAEIEAIQESLQPSDKDEGDHPNNSFSPCSAHDRRCLQKHFAKIRDRSTSGGKMKVNGAPREDARPVPQGSCQSELHRALERLAASQSRTHEDLYIIPIPNCDRNGNFHPKQCHPALDGQRGKCWCVDRKTGVKLPGGLEPKGELDCHQLADSFRE
Regarding B1, the “glucose uptake, concentration compared with insulin” value in assay [1] is “improves glucose uptake at 100 lower concentration than insulin”. In assay [2], the “hyperinsulinemia (insulin levels in the blood)” value is “reduction”.
